The DeepSol protein solubility set

Test: soluble on expression in E. coli; label from the status in PepcDB or PDB records

Sequence | soluble on expression in E. coli
MGSDKIHHHHHHMSDFHHGVQVVEINDGTRVISTVSTAIIGMVCTASDADAATFPLNKPALITSVQSAIAKAGTKGTLAASLQAIADQSKPVIVVVRVAEGTGDDAEAQTISNIIGGTDESGNYTGLKALLTAEAVTGVKPRILGVPGLDSLEVATALAPICQKLRAFGYISAWDCQNISEAMLYRENFSQRELMVIWPDFLAWDTTANATETVWATARALGLRAKIDQDTGWHKTLSNVGVNGVTGISASVFWDLQESGTDADLLNEAGVTTLIRKDGFRFWGNRCCSDDPLFLFENYTRTAQVIADTMAAGHMWAVDKPITATLIKDIVAGINAKFREMKTAGYIVDATCWFDESANDAATLKAGKLYIDYDYTPVPPLENLTLRQRITDKYLANLVSSVNSN | not soluble
MGSDKIHHHHHHMSDIKFNSMTHFEAVARLGGVAKAAQELQVTPSAVSQQLRLLEHQLGVRLFQREKRHLSLTIDGERLFQTTTQAFESIREVRNAIVRQRESFQLSLRVSPSFGEKWLAPRLAEFSKDYPSWNLRVDATPNFSDFETEVIDLDLRYGDGGWAGLYSDCVVNDLILPMCSPSYLAELRGLSVDPREQLGHARLIDSVKAYFRWDYWLPRNGIQGARMTYPYRFDRSSMSVQLAKDGAGVVLESTTIAFEDLVSGSLVPVSTEFDVIEFPGYWLVCPSRHMNRRAVRLFSDWVSRVGQRDTDRARQFLSESGLHISFERRPHFGTPDDRAATML | not soluble
MGSDKIHHHHHHMSDVSPARALGIDFGTSNSTVGWHRPGVESLIALEDGKITLPSVVFFNIEERRPVYGRLALHEYLEGYEGRLMRSLKSLLGSKLIKHDTSVLGSALPFKDLLGMFIGELKKRAEAAAGREFDQVVLGRPVFFVDEDPAADQEAEDTLAEVARKIGFKDVSFQYEPIAAAFDYESSISREELVLIVDIGGGTSDFTLIRLSPERHLVAERQSDILATGGVHIGGTDFDKQLSLQGVMPLFGYGSRMKSGALMPTSYHLNLATWHTINALYSQKSQLALGSMRYDIEDSFGIDRLFKLIEQRAGHWLAMEVEASKIELTEHDSRHIDLRRVEPELTAELTRTLFEEAIEGLLERVRGSVTELLAKAGVSEGQVDTVFFTGGSSGIPALRNSVSAMLPNARHVEGNIFGSIGSGLAIEARKRYGAA | not soluble
MGSDKIHHHHHHMSEKQQILDYIETNKYSYIEISHRIHERPELGNEEIFASRTLIDRLKEHDFEIETEIAGHATGFIATYDSGLDGPAIGFLAEYDALPGLGHACGHNIIGTASVLGAIGLKQVIDQIGGKVVVLGCPAEEGGENGSAKASYVKAGVIDQIDIALMIHPGNETYKTIDTLAVDVLDVKFYGKSAHASENADEALNALDAMISYFNGVAQLRQHIKKDQRVHGVILDGGKAANIIPDYTHARFYTRAMTRKELDILTEKVNQIARGAAIQTGCDYEFGPIQNGVNEFIKTPKLDDLFAKYAEEVGEAVIDDDFGYGSTDTGNVSHVVPTIHPHIKIGSRNLVGHTHRFREAAASVHGDEALIKGAKIMALMGLELITNQDVYQDIIEEHAHLKGNGK | not soluble
MGSDKIHHHHHHMSELTQLFPQPLWQWFAQICAIPHPSKHEQALSLHIQQWAKDKGLSVIEDKVGNLIIKKPAFAGMEDRKKVVLQAHLDMVPQKNADKVHNFETDPIEAYIDGDWVKAKGTTLGSDNGIGMASALAILGSDSIKHGPLEVLLTIDEEAGMTGAFGLEAGMLEAEILINTDSEQEGEIYMGCAGGVDGQISLPMSWQSPEQSNSSFNLTLSGLKGGHSGVNIHLGRGNANKLLARFLFDYADDLALELVSFSGGSLRNAIPREASISFMLPPENLTALNQAIADFQALVREELAIADPGMLLTLVEVPAHTKVMGEDSQNTLIDLLHVCPNGVIRMSDEVEGVTETSLNVGVISTHDDSVEILCLIRSLIDSGRSEVTGMITALTHLAGADVEFSGAYPGWKPDTSSPVMAIVRETYNDIYHKDPTVMVIHAGLECGLFKEPYPAMDMVSIGPTIRYPHSPDEMVNITTVGQYWQLLLAVLERIPVRG | not soluble
MGSDKIHHHHHHMSENEQLSATYELLHADAASPVMISLPHSGTWIPADMRKHLLPTAVLANTDWFLPALYDFLPQTGFTTLINRVNRYVADPNRAVTLDLDHDYRSATIYQRNTFNHPLYARPLPPETLQSRLRTYYWPYRHALTMILKQKQAKFGHAYLIDLHSFAQYPHYPGIKPKTIVLGNDHDRTTSKIFRQTLSAAFVAHDFTVENNFPFRGGDITRYYGHQPNITAIQIELRYDQYIDQRSFREEVLTRHQTDLFCKAQDRLRFLRDFLKQLR | not soluble
MGSDKIHHHHHHMSESLPPDAQRSPSYRAGVGLKAEHYRTILESQPDIGFFEVHAENYMGAGGPPHRFLSAIRESYPLSLHGVGLSIGADRPLDRDHLQRLKELIARYSPALFSEHLAWSSHDCGFLNDLLPVPYTAESLTRIVDHIDQVQEVLGRQMLLENPSTYLAFEESTYPEIDFIAAVVRRTGCGLLLDVNNVYVASINQQWDPFAYIDEYPLAAVQEIHLAGHAEETDEKARPLLIDSHDRHVADVVWDLYARAIRGTGPIPTLIEWDANIPDWPTLKAEAGRADAVVQAATQPASVDHVTIRSQFDMTRRRLKEAQTL | not soluble
MGSDKIHHHHHHMSFSGFEQFIGLVANRYGKPGTPHSEEQHSDYEAGTVLLGSETWHIRTARVTPTKPGAFVAFWMRNEQGEICPFDSSEACAGLLIFVQDESNFGVFRFTREQLEQQGITRSTKRPGKRGFRVYPSWSGNLNAQAKKTQAIQTPSFELLQ | not soluble
MGSDKIHHHHHHMSHHIEDLLNAWSAAPQDDWVLAVVTHVEGSAYRKVGAMMLIHGMGKSVGLVSGGCLEADLRRRAQKVIQTGQAASVCYDATDEADASYQLGCGGLVHLMLLPLCAANHYLHFQALKAALASQGRCHYQLMLTDESLSPGSLGAKVWTSQQALDDAKAGWQLSDFPRPGILQGQSMQGETVRGQSLQDESVQGESASLVVPLREHHRIAIFGGGLDAQPVCQIAQQLGWRVDVVDRRTSYAREYDFVGANIIKLPVSELPKNFWTRLDGAIVMQHNLELDAKALAAIHQHAKQLSYLALLGPGHRRDRVLALAGLEVASFGAYFSAPAGLALGGELPSSIALSILSECHGVLHGAKRVALKEVMA | not soluble
MGSDKIHHHHHHMSHIIKIFPSNIEFSGREDESILDAALSAGIHLEHSCKAGDCGICESDLLAGEVVDSKGNIFGQGDKILTCCCKPKTALELNAHFFPELAGQTKKIVPCKVNSAVLVSGDVMTLKLRTPPTAKIGFLPGQYINLHYKGVTRSYSIANSDESNGIELHVRNVPNGQMSSLIFGELQENTLMRIEGPCGTFFIRESDRPIIFLAGGTGFAPVKSMVEHLIQGKCRREIYIYWGMQYSKDFYSALPQQWSEQHDNVHYIPVVSGDDAEWGGRKGFVHHAVMDDFDSLEFFDIYACGSPVMIDASKKDFMMKNLSVEHFYSDAFTASNNIEDNL | not soluble
MGSDKIHHHHHHMSIDFYNQNASSFYASTVEVDSSSLLEQFTPYLPKGGSVLDAGCGSGRDSKRLIELGFHVDAFDASAALATLAQQLLGKPVRVATFMQFTSTLQYDGIWACASLLHVSKASLPDAFAHLASMLKSGGAFYCSFKYGQGEVERDGRSFTHCDEALLAELLTGSPLVIDKVWLTTDLRVGRENEQWLNAVLLKR | not soluble
MGSDKIHHHHHHMSIDYSQKIPNNVNLADDRALQRALEHWQPAFLDWWRDMGPEGSHNFDVYLRTAVSVDPSGWAHFEHVKMPDYRWGIFLQPADPARQIHFGEHKGEAAWQDVPGEHRANLRRIIVTQGDTEPASVEQQRHLGLTAPSLYDLRNLFQVNVEEGRHLWAMVYLLHRYFGRDGREEAEALLDRRSGDQDNPRILGAFNERTPDWLSFFMFTYFTDRDGKFQLCALAESGFDPLARTTRFMLTEEAHHMFVGESGVSRVIQRTCEVMRERDIRDPADVRAAGVIDLETIQRYLNFHYSVTIDLFGADQSSNAATFYSAGLKGRFEEGKRTDDHVLKSDVYRVLEVRDGQLGEREVPMLNALNEVLRDDYIRDSIGGVARWNKVIEKHGIPFKLTVPHKAFNRKIGTLSNVHVSPTGELLTEAQWQANERNWLATEEDRAYVASLMGRVTEPGKYANWIAPPAVGVNRQPMDFEYVRFN | not soluble
MGSDKIHHHHHHMSIPLAFIICTEPGRLESQSLMLASSIRKFCGNLKDTPIYSFHPRVGEPISHQTQEAFAALQVIHQQIPINQEFHEYYLANKPLVCAYAEQNIDAEILVFLDSDKCLFAEPTEFLLPENCNVRVRPEYGQGIGSTGSQDPQEWYWQRLYQVLGVKREIFVNTPIGNKRIRAYWNSGLVAVRRSAGIFTAWKENFTKVMHLDITPPQGIYFVEQSVLSVTLCALVDNIEHFSLNYSYPLPLHNRLSPELRLQDWDDITSIHYFNLFFYNDWNTQIKKLKKFNITSDKYKWLSQEVVRLNMSRTSVLHRYMLAIRRIEQKLQKFNIKINLSSLIEKTAKF | not soluble
MGSDKIHHHHHHMSIRIGISGWRYARWRGTFYPTGLAQRRELAYAGRCFPSVEINGSFYSLQRPESYQSWHDETPDDFVFAVKGPRFVTHMKRLRDCEQALANFFASGVLRLGEKLGPILWQLPPTLRFDDAVLDAFLSSLPRDTEAALALARKRDTTLMHGRTALSIDRKRPLRHALEMRHPSFCDPSCMKLLRKHKVGVVVADTAGKFPYLEDVTADFVYLRLHGDAQLYASGYSDHALDRWGERIAAWAAGGEPSDAQRVGPRASKRARRDVYCYFDNDMKVHAPFDARGLMQRLDLPTDCPAREEVV | not soluble
MGSDKIHHHHHHMSKGTIRVLQLYPRDMNIYGDWGNALVLQQRLRWHGYTPELLEYNVGDEFPAGVDLIVGGGGQDSGQLVIQDDLLSRESTLKELAEAGTPMLLICGMYQLFGKFFKTRTGSVIPGIGVLDVETHGTDERLIGNVTVSSPEFGDVLGYENHSGQTTLGPGVRPLGSTPKGIGNNSKDGQEGARYRNIVASYLHGSLLPKNPAIADFLIRTAVERKYGSFTPGAPDDRYAVMAREHAARRPR | not soluble
MGSDKIHHHHHHMSLAVTYTRAMIGVQAPDVYIEVHISSGLPALTLVGLPETTVKEARDRVRSALINCGFTFPAKRITVNLAPADLPKEGGRYDLPIALAILAASEQIDGEKLNRYEFLGELGLSGTLRGVNGAIPAALEAIKAGRQLILPDDNKREMTLIPQGEALMAGHLLQVCAFLSGEEELLSCSDMTPVPQPAEDTLDLKDIIGQEQAKRALEIAAAGGHNLLLLGPPGTGKTMLASRLGNLMPPLSDEEALESAAINSLINIDATMTRWRARPFRAPHHSSSMAALVGGGSLPKPGEISLAHNGVLFLDELPEFERRVLDSLREPLESGEIIISRTRAKVCYPARVQLVAAMNPSPSGHYQGIHNRLPAQQILRYLSKLSGPFLDRFDLSIEVPLLPPGVLSQQHYQGESSATIRERVLIARQIQLKRANKINALLTSREIERHCKLEMADAAYLEDVMNKLGLSVRAWHRILKVARTIADLGDRDNIEKKHLAEALSYRCMDRLLIQLHKSLE | not soluble
MGSDKIHHHHHHMSLPLYQQISDDLKQKIVTKTFKSGDQLPTEKELSETYSVSRITAKRALTELEQLGLVSRTRGKGTFVQELNKNHTKLLKRVLFIIPFEGMSFGDFTQGLVPALKVENTTVFITYESYLKENTADDIKENFDGLIYYPMYTEDYLDILLELSLQNFPVVLLDKQIYDLGFPCVSSDNFNGGEQAAQALLNLGHKRIAFVASNDTHHPQTTRNRYLGYVKVLKEQGIKFHTTLDDSLYTESSVLELIHNEKVTGLICENDLVALQTMKTLQDSHFSVPNDISIIGFDDIQAASLSNPPLTTIAQDFIGMGRIAGELLLDWIKSGQTPKDVKVPINLIKRKTTEELK | not soluble
